Test results reported in patent publication US5635601, “Beta-8 integrin subunit antibodies” (Genentech, Inc., dated 1997).

Columns and labels:
alpha-3 integrin subunit = molecular target: T1, alpha-3 integrin subunit (human, UniProt P26006); assay: co-immunoprecipitation from surface-labelled beta-8-transfected 293 cells with monoclonal antibody P1B5
T1 sequence 1: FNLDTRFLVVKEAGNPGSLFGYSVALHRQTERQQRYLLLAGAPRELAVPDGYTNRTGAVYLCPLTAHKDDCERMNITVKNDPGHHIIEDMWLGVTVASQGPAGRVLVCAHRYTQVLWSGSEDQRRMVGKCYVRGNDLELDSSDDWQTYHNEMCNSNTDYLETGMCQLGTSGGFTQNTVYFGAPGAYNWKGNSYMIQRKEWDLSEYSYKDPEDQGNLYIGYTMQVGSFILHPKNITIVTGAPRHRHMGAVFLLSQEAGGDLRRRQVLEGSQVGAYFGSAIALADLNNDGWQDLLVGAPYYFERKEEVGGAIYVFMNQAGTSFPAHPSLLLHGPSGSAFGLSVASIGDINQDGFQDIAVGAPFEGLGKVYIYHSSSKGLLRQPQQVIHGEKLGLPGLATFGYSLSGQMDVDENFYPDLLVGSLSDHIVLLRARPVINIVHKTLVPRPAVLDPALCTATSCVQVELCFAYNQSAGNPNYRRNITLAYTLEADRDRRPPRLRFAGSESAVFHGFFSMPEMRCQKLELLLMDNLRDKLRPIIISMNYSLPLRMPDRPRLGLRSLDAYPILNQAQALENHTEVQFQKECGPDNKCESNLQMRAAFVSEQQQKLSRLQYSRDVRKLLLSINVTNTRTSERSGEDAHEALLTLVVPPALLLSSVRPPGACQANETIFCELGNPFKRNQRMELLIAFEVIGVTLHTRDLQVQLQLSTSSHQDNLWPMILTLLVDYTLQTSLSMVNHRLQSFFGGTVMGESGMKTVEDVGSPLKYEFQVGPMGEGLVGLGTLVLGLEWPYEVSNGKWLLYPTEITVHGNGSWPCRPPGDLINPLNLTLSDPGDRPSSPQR
T1 sequence 2: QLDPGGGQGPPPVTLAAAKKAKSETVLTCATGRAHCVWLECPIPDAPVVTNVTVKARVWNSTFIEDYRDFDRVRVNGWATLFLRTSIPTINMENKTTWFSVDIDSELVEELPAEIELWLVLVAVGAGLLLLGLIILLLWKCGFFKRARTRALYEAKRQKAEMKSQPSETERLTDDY
Method: (§1) For the immunoprecipitation, four hundred microliters of the labelled cell extract was incubated with 1/100 volume of antibody (ascites, culture supernatant or antiserum) at 4° C. overnight, and immunoprecipitations were carried out using Protein G Sepharose™ 4FF (Pharmacia) after first preclearing with SEPHAROSE™ CL-4B (Pharmacia). Protein G SEPHAROSE™ beads were washed three times with 0.05% Tween 20, 20mM Tris pH 8, 120 mM NaCl, 2 mM CaCl_2. Proteins precipitated from the labelled cell extracts were solubilized by heating in sample buffer and analyzed by separation on a 7.5% SDS-polyacrylamide gel followed by autoradiography.
(§2) These cells endogenously express various alpha integrin subunits, including alpha-v. The beta-8 integrin transfected cell proteins were prepared for immunoprecipitation as described in Example 4.
(§3) Monoclonal antibodies against several different alpha integrin subunits were used in the immunoprecipitations in order to identify with which alpha subunit the beta-8 integrin formed a complex. […]

alpha-6 integrin subunit = molecular target: T2, alpha-6 integrin subunit (human, UniProt P23229); assay: co-immunoprecipitation from surface-labelled beta-8-transfected 293 cells with monoclonal antibody GoH3
T2 sequence 1: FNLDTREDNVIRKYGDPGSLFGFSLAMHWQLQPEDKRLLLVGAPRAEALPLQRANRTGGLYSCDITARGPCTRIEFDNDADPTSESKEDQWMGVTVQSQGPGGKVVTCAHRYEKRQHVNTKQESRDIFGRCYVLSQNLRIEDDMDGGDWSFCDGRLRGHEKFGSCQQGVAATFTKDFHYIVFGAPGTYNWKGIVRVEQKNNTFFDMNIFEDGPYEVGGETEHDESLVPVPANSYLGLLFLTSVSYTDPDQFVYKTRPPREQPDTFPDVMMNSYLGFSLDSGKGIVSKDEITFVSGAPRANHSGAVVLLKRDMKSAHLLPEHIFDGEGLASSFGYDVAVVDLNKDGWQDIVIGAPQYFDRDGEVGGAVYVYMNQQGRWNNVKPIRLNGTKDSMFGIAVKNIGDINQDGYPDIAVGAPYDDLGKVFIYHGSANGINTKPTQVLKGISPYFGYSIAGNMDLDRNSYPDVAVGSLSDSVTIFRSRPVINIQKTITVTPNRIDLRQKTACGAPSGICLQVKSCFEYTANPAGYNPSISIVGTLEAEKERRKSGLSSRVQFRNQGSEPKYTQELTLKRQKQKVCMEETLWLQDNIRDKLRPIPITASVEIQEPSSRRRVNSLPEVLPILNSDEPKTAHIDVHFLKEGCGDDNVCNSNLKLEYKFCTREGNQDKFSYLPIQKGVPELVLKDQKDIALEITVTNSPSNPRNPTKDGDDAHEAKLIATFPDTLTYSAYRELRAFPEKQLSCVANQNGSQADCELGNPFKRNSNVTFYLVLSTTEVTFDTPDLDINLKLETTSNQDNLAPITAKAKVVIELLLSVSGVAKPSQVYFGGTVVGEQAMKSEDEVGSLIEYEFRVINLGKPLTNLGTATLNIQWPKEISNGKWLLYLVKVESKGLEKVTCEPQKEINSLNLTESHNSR
T2 sequence 2: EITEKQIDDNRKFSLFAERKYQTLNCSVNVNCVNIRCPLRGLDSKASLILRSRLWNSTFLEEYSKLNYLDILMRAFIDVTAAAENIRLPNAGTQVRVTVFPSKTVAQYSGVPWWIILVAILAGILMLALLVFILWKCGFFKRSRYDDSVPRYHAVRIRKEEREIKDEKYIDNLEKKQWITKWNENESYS
Method: as §1, §2, §3

alpha-5 integrin subunit = alpha-5 integrin subunit (human, UniProt P08648); assay: co-immunoprecipitation from surface-labelled beta-8-transfected 293 cells with monoclonal antibody P1D6
Method: as §1, §2, §3

alpha-2 integrin subunit = alpha-2 integrin subunit (human, UniProt P17301); assay: co-immunoprecipitation from surface-labelled beta-8-transfected 293 cells with monoclonal antibody P1H5
Method: as §1, §2, §3

alpha-1 integrin subunit = alpha-1 integrin subunit (human, UniProt P56199); assay: co-immunoprecipitation from surface-labelled beta-8-transfected 293 cells with monoclonal antibody TS2/7
Method: as §1, §2, §3

Measured: binding result

B1: human beta-8 integrin subunit (receptor)
chain: EDNRCASSNAASCARCLALGPECGWCVQEDFISGGSRSERCDIVSNLISKGCSVDSIEYPSVHVIIPTENEINTQVTPGEVSIQLRPGAEANFMLKVHPLKKYPVDLYYLVDVSASMHNNIEKLNSVGNDLSRKMAFFSRDFRLGFGSYVDKTVSPYISIHPERIHNQCSDYNLDCMPPHGYIHVLSLTENITEFEKAVHRQKISGNIDTPEGGFDAMLQAAVCESHIGWRKEAKRLLLVMTDQTSHLALDSKLAGIVVPNDGNCHLKNNVYVKSTTMEHPSLGQLSEKLIDNNINVIFAVQGKQFHWYKDLLPLLPGTIAGEIESKAANLNNLVVEAYQKLISEVKVQVENQVQGIYFNITAICPDGSRKPGMEGCRNVTSNDEVLFNVTVTMKKCDVTGGKNYAIIKPIGFNETAKIHIHRNCSCQCEDNRGPKGKCVDETFLDSKCFQCDENKCHFDEDQFSSESCKSHKDQPVCSGRGVCVCGKCSCHKIKLGKVYGKYCEKDDFSCPYHHGNLCAGHGECEAGRCQCFSGWEGDRCQCPSAAAQHCVNSKGQVCSGRGTCVCGRCECTDPRSIGRFCEHCPTCYTACKENWNCMQCLHPHNLSQAILDQCKTSCALMEQQHYVDQTSECFSSPSYLRIFFIIFIVTFLIGLLKVLIIRQVILQWNSNKIKSSSDYRVSASKKDKLILQSVCTRAVTYRREKPEEIKMDISKLNAHETFRCNF
modifications: surface labelled with 125I (lactoperoxidase)
no binding: all assays above
